Experimental data from patent US6013515, “Cofactors for HIV-1 protein Tat and methods of use therefor” (The Rockefeller University, dated 2000).

Experiments:
[1] = molecular target: GST (glutathione S-transferase) control column (Schistosoma japonicum (Blood fluke), UniProt P08515 = GST); test: affinity chromatography of HeLa whole cell extract, SDS-PAGE, silver stain
[2] = molecular target: HIV-1 Tat (HIV-1, UniProt P04608); test: cell-based or functional assay

B1: Tat-interacting protein 30 (TIP30), endogenous 30 kDa protein from HeLa extract (other)
chain: AETEALSKLREDFRMQNKSVFILGASGETGRVLLKEILEQGLFSKVTLIGRRKLTFDEEAYKNVNQEVVDFEKLDDYASAFQGHDVGFCCLGTTRGKAGAEGFVRVDRDYVLKSAELAKAGGCKHFNLLSSKGADKSSNFLYLQVKGEVEAKVEELKFDRYSVFRPGVLLCDRQESRPGERLVRKFFGSLPDSWASGHSVPVVTVVRAMLNNVVRPRDKQMELLENKAIHDLGKAHGSLKP
**Q.** Does B1 bind [1]?
**A.** Result: no binding

B2: TIP1 expressed in HeLa cells from pcDNA3.1TIP1 (other)
chain: MAETEALSKLREDFRMQNKSVFILGASGETGRVLLKEILEQGLFSKVTLIGRRKLTFDEEAYKNVNQEVVDFEKLDDYASAFQGHDVGFCCLGTTRGKAGAEGFVRVDRDYVLKSAELAKAGGCKHFNLLSSKGADKSSNFLYLQVKGEVEAKVEELKFDRYSVFRPGVLLCDRQESRPGERLVRKFFGSLPDSWASGHSVPVVTVVRAMLNNVVRPRDKQMELLENKAIHDLGKAHGSLKP
**Q.** B2 was tested. Which “CAT expression from HIV-1 LTR-CAT reporter in cotransfected HeLa cells” value [2] did it give?
**A.** The value was 8.9 fold.
